According to patent US20230051304A1 (Regeneron, published 2023):
Like-named read-outs stand apart in the source and are kept apart here.

Experiments:
Assay in all cases: cell-based or functional assay
[1] = target: murine IL12 receptor complex (IL12Rβ1 and IL12Rβ2) (mouse) (UniProt Q60837)
[2] = target: murine IL12 receptor complex (IL12Rβ1 and IL12Rβ2) (mouse) (UniProt Q60837); remark: listed apart in the source
[3] = target: murine IL12 receptor complex (IL12Rβ1 and IL12Rβ2) (mouse) (UniProt Q60837); remark: listed apart in the source

murine IL12 receptor complex (IL12Rβ1 and IL12Rβ2) (mouse), sequence (Q60837 20-738, chain 1 of 2): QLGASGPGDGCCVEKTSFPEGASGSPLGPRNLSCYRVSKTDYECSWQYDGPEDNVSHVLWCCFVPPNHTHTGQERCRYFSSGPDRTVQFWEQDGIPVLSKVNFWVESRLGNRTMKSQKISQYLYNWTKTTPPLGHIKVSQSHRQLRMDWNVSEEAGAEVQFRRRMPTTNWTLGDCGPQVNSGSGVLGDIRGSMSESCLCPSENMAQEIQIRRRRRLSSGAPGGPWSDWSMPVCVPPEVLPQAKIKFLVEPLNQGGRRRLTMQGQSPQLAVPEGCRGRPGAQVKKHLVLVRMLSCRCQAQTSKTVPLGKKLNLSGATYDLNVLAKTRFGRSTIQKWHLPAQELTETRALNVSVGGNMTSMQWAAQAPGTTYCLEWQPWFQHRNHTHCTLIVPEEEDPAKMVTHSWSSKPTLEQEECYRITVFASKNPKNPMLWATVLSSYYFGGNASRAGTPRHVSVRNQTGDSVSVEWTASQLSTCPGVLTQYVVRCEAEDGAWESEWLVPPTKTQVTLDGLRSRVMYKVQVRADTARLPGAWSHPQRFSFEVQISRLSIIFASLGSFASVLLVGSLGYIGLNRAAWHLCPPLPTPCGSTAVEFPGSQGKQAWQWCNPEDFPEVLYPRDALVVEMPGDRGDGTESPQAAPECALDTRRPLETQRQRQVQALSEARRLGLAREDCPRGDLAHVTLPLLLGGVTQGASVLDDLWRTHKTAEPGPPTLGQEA
murine IL12 receptor complex (IL12Rβ1 and IL12Rβ2) (mouse), sequence (P97378 24-874, chain 2 of 2, further chain): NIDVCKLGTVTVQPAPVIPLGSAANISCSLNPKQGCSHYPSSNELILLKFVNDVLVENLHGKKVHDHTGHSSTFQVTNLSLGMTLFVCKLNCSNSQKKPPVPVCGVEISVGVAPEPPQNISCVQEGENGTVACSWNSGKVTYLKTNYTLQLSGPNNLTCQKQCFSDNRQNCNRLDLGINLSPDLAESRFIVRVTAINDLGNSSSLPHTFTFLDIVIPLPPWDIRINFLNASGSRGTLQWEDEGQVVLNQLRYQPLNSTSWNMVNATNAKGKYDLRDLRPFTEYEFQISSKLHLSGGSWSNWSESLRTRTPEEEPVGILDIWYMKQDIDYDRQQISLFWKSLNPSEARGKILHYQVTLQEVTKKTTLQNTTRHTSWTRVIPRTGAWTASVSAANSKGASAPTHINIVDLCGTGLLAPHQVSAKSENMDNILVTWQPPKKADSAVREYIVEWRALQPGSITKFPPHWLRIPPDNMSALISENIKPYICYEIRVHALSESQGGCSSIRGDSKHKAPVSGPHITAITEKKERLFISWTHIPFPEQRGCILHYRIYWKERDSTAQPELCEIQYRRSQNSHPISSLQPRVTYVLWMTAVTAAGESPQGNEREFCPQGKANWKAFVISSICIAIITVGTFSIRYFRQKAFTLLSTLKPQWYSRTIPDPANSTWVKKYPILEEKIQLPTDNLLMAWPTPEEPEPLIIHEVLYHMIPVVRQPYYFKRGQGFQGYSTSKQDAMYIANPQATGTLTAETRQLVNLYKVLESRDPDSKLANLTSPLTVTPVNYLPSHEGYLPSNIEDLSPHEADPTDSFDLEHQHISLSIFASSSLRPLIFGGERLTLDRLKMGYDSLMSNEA

EC50 (M); STAT3-Luc reporter, CTLL2/STAT3-Luc cells [1]: 5.56e-11 M
Fold induction at 6.25 nM; STAT3-Luc reporter, CTLL2/STAT3-Luc cells [1]: 12.2 fold
Max fold induction; STAT3-Luc reporter, CTLL2/STAT3-Luc cells [1]: 12.4 fold
EC50 (M); STAT3-Luc reporter, CTLL2/STAT3-Luc cells [2]: 3.46e-11 M
Fold induction at 20 nM; STAT3-Luc reporter, CTLL2/STAT3-Luc cells [2]: 18.8 fold
Max fold induction; STAT3-Luc reporter, CTLL2/STAT3-Luc cells [2]: 19.1 fold
EC50 (M); STAT3-Luc reporter, CTLL2/STAT3-Luc cells [3]: 3.71e-10 M
Max fold induction; STAT3-Luc reporter, CTLL2/STAT3-Luc cells [3]: 17.8 fold
B1: recombinant mIL12 (ligand, mouse)
chain 1: RVIPVSGPARCLSQSRNLLKTTDDMVKTAREKLKHYSCTAEDIDHEDITRDQTSTLKTCLPLELHKNESCLATRETSSTTRGSCLPPQKTSLMMTLCLGSIYEDLKMYQTEFQAINAALQNHNHQQIILDKGMLVAIDELMQSLNHNGETLRQKPPVGEADPYRVKMKLCILLHAFSTRVVTINRVMGYLSSA
chain 2: MWELEKDVYVVEVDWTPDAPGETVNLTCDTPEEDDITWTSDQRHGVIGSGKTLTITVKEFLDAGQYTCHKGGETLSHSHLLLHKKENGIWSTEILKNFKNKTFLKCEAPNYSGRFTCSWLVQRNMDLKFNIKSSSSSPDSRAVTCGMASLSAEKVTLDQRDYEKYSVSCQEDVTCPTAEETLPIELALEARQQNKYENYSTSFFIRDIIKPDPPKNLQMKPLKNSQVEVSWEYPDSWSTPHSYFSLKFFVRIQRKKEKMKETEEGCNQKGAFLVEKTSTEVQCKGGNVCVQAQDRYYNSSCSKWACVPCRVRS
